Data published in patent publication US7049395 (YALE UNIVERSITY, dated 2006).

B1: NEMO-(197-419) (other, human, UniProt Q9Y6K9 197-419, looked up)
chain: VQVDQLRMQGQSVEAALRMERQAASEEKRKLAQLQVAYHQLFQEYDNHIKSSVVGSERKRGMQLEDLKQQLQQAEEALVAKQEVIDKLKEEAEQHKIVMETVPVLKAQADIYKADFQAERQAREKLAEKKELLQEQLEQLQREYSKLKASCQESARIEDMRKRHVEVSQAPLPPAPAYLSSPLALPSQRRSPPEEPPDFCCPKCQYQAPDMDTLQIHVMECIE
notes: range 197-419; [35S]-labelled in vitro translated; also transfected in COS or HEK293 cells

Assays:
FLAG-tagged IKKβ = biological target: T1, FLAG-tagged IKKβ (human, UniProt O14920 1-756); assay: co-immunoprecipitation from transfected COS or HEK293 cells
T1 construct: expressed in transfected COS, HEK293 or HeLa cells; also called IKKβ-FLAG; FLAG-IKKβ
T1 sequence (looked up): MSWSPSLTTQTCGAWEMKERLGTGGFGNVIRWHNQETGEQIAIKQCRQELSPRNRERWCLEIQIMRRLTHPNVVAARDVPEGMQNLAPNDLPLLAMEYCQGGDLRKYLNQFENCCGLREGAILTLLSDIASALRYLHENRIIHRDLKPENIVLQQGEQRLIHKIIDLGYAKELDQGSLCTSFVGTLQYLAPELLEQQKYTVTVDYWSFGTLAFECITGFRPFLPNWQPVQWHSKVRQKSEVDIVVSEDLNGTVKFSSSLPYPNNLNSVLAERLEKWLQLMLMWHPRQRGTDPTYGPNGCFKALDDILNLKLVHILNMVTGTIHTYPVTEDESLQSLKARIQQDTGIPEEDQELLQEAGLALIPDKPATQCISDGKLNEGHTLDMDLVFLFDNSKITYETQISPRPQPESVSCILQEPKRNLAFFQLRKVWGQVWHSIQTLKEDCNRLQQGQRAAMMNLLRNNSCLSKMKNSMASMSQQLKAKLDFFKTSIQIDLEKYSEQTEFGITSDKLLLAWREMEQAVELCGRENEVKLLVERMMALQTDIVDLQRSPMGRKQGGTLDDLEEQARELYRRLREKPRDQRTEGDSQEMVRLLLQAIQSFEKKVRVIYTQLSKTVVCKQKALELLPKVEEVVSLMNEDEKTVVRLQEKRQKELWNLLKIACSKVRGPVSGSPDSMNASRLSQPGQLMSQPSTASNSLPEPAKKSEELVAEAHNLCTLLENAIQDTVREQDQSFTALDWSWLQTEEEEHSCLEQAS
Experimental: For all immunoprecipitations HeLa or COS cells grown in six well trays were lysed in 500 µl TNT. FLAG-tagged proteins were precipitated from lysate of transfected cells for two hours at 4° C. using 20 µl of anti-FLAG (M2)-conjugated agarose beads (Sigma). […] For immunoblotting, precipitates were washed three times with TNT, twice with PBS then suspended in SDS-sample buffer. Proteins were separated by SDS-PAGE (10%), transferred to PVDF membranes and visualized by enhanced chemiluminesence (Amersham-Pharmacia).

GST alone [1] = biological target: T2, GST alone (UniProt P08515 1-218 = GST); assay: GST pull-down of in vitro translated protein
T2 construct: control bait in the GST pull-downs
T2 sequence (P08515 whole entry): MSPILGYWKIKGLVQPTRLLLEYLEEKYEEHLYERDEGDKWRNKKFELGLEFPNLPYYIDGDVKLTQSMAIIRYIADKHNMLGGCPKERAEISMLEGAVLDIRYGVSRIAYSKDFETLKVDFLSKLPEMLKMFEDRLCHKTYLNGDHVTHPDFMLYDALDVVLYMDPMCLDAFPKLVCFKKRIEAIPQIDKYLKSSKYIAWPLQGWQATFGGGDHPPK

NEMO-(86-419) = biological target: T3, NEMO-(86-419) (human, UniProt Q9Y6K9 86-419); assay: GST pull-down with GST-IKKβ-(644-756)
T3 construct: range 86-419; [35S]-labelled in vitro translated; also transfected in COS or HEK293 cells
From the text: (§1) Equal amounts of each protein were used for subsequent GST pull-down analyses.

NEMO-(197-419) = biological target: B1; assay: GST pull-down with GST-IKKβ-(644-756)
From the text: as §1

GST alone [2] = biological target: T2, GST alone; assay: GST pull-down of [35S]-labelled NEMO truncations
From the text: as §1

B1: no binding (FLAG-tagged IKKβ).

B2: IKKβ-(644-756) (enzyme, human, UniProt O14920 644-756, looked up)
chain: VRLQEKRQKELWNLLKIACSKVRGPVSGSPDSMNASRLSQPGQLMSQPSTASNSLPEPAKKSEELVAEAHNLCTLLENAIQDTVREQDQSFTALDWSWLQTEEEEHSCLEQAS
B2: no binding (GST alone [1]).

B3: GST-IKKβ-(644-756) (other, human, UniProt O14920 644-756, looked up)
chain: VRLQEKRQKELWNLLKIACSKVRGPVSGSPDSMNASRLSQPGQLMSQPSTASNSLPEPAKKSEELVAEAHNLCTLLENAIQDTVREQDQSFTALDWSWLQTEEEEHSCLEQAS
notes: bacterially expressed; not shown: glutathione S-transferase (GST) as encoded by vector pGEX-4T1 (Pharmacia)
B3: no binding (NEMO-(86-419)); no binding (NEMO-(197-419)).

B4: NEMO-(1-196) (other, human, UniProt Q9Y6K9 1-196, looked up)
chain: MNRHLWKSQLCEMVQPSGGPAADQDVLGEESPLGKPAMLHLPSEQGAPETLQRCLEENQELRDAIRQSNQILRERCEELLHFQASQREEKEFLMCKFQEARKLVERLGLEKLDLKRQKEQALREVEHLKRCQQQMAEDKASVKAQVTSLLGELQESQSRLEAATKECQALEGRARAASEQARQLESEREALQQQHS
notes: [35S]-labelled in vitro translated; also transfected in COS or HEK293 cells
B4: no binding (GST alone [2]).
